Data reported in patent publication EP4682164A1 (Curogen Technology Co., Ltd., dated 2026).
Positions count from the first letter of the chain named.

T1: wild-type IL-17RC (wtIL-17RC) (human, UniProt Q8NAC3 21-538, limits assumed)
T1 construct: also called IL-17RC wild type
T1 sequence (looked up): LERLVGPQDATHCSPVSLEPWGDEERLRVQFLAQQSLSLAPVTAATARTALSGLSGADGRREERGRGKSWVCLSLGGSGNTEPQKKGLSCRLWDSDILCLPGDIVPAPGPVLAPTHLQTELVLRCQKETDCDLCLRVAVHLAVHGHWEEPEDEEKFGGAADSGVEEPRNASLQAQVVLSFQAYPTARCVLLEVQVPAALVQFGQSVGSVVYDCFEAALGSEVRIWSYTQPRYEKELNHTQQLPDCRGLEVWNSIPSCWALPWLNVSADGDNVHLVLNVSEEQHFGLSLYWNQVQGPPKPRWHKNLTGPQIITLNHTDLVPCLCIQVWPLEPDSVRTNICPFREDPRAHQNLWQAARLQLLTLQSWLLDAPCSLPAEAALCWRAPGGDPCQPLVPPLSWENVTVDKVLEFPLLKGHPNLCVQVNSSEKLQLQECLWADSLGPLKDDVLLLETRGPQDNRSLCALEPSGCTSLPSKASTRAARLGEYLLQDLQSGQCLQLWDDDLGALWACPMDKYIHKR

B1: T1-T4-14 (Fc fusion)
chain: LRLLDHRAPVCSQPGLNCTVKNSDCLDDSWIHPRNLTPSSPKDLQIQLHFAHTQQGDLVPVAHIEWTLQTDASILYLEGAELSVLQLDTNERLCVRFEFLSKLRHHHRRWRFTFSHFVVDPGQEYEVTVHHLPKPIPDGDPNHQSKNFLVPDCEHPRMKVTTPCMSSALPWLNVSADGDNVHLVLNVSEEQHFGLSLYWNQVQGPPKPRWHKNLTGPQIITLNHTDLVPCLCIQVWPLEPDSVRTNICPFREDPRAHQNLWQAARLRLLTLQSWLLDAPCSLPAEAALCWRAPGGDPCQPLVPPLSWENVTVDKVLEFPLLKGHPNLCVQVNSSEKLQLQECLWADSLGPLKDDVLLLETRGPQDNRSLCALEPSGCTSLPSKASTRAARLGEYLLQDLQSGQCLQLWDDDLGALWACPMDKYIHKTGIEGRMDRNTGRGGEEKKKEKEKEEQEERETKTPECPSHTQPLGVFLFPPKPKDTLMISRTPEVTCVVVDVSQEDPEVQFNWYVDGVEVHNAKTKPREEQFNSTYRVVSVLTVLHQDWLNGKEYKCKVSNKGLPSSIEKTISKAKGQPREPQVYTLPPSQEEMTKNQVSLTCLVKGFYPSDIAVEWESNGQPENNYKTTPPVLDSDGSFFLYSRLTVDKSRWQEGNVFSCSVMHEALHNHYTQKSLSLSLGKGGGGSGGGGSGGGGSLELPAQVAFTPYAPEPGSTCRLREYYDQTAQMCCAKCPPGQHAKVFCTKTSDTVCDSCEDSTYTQLWNWVPECLSCSSRCSSDQVETQACTREQNRICTCRPGWYCALSKQEGCRLCAPLSKCRPGFGVARPGTETSDVVCKPCAPGTFSNTTSSTDICRPHQICSVVAIPGNASMDAVCTSTSPTRSMAPGAVHLPQPVSTRSQHTQPTPGPSTAPSTSILLPMGPSPPAEGSTGD
notes: also called T1c-Fc-T4g; IL-17RA/RC-Fc-TNFR2 (T1-T4-14)
B2: T1-T4-30 (Fc fusion)
chain: B1 chain with A729S, P732S, S815R, S860N, G906E, I915F
B3: T1-T4-11 (Fc fusion)
chain: B1 chain with S771G, G906E, I915F
notes: also called T1c-Fc-T4d; IL-17RA/RC-Fc-TNFR2
B4: T1-T4-06 (Fc fusion)
chain: B1 chain with P156A, A729S, P732S, S771G, S815R, S860N, G906E, I915F
notes: also called T1b-Fc-T4wt; IL-17RA/RC-Fc-TNFR2
B5: T1-T4-31 (Fc fusion)
chain: B1 chain with M484Y, S486T, T488E
notes: also called T1c-Fca-T4g; IL-17RA/RC-Fc-TNFR2
B6: T1-T4-14 produced in pcDNA3.4 (Fc fusion)
chain: B1 chain
notes: Same named protein as T1-T4-14 but expressed from the pcDNA3.4 vector; also called IL-17RA/RC-Fc-TNFR2
B7: T1-T4-13 (Fc fusion)
chain: B1 chain with S771G
notes: also called T1c-Fc-T4f; IL-17RA/RC-Fc-TNFR2
B8: T1-T4-32 (Fc fusion)
chain: B1 chain with H665K, N666F
notes: also called T1c-Fcb-T4g; IL-17RA/RC-Fc-TNFR2
B9: T1-T4-14+GT6 (glycan sialylated T1-T4-14) (Fc fusion)
chain: B1 chain
modifications: glycan sialylation (co-expressed with B4GALT6, fed with UMnG and ManNAc)
notes: Same polypeptide as T1-T4-14, with increased sialylation; also called T1-T4-14 produced in pcDNA3.4+GT6; glycan sialylated IL-17RA/RC-Fc-TNFR2
B10: T1-T4-07 (Fc fusion)
chain: B1 chain with A729S, P732S, S771G, S815R, S860N, G906E, I915F
notes: also called T1c-Fc-T4wt; IL-17RA/RC-Fc-TNFR2
B11: T1-T4-10 (Fc fusion)
chain: B1 chain with S771G, S860N, G906E, I915F
notes: also called T1c-Fc-T4c; IL-17RA/RC-Fc-TNFR2
B12: T1-T4-09 (Fc fusion)
chain: B1 chain with S771G, S815R, S860N, G906E, I915F
notes: also called T1-T4-9; T1c-Fc-T4b
B13: T1-T4-12 (Fc fusion)
chain: B1 chain with S771G, I915F
notes: also called T1c-Fc-T4e; IL-17RA/RC-Fc-TNFR2
B14: T1-T4-08 (Fc fusion)
chain: B1 chain with P732S, S771G, S815R, S860N, G906E, I915F
notes: also called T1-T4-8; T1c-Fc-T4a
B15: human IL-17F (IL-17FF homodimer) (ligand, UniProt Q96PD4 31-163, looked up)
chain: RKIPKVGHTFFQKPESCPPVPGGSMKLDIGIINENQRVSMSRNIESRSTSPWNYTVTWDPNRYPSEVVQAQCRNLGCINAQGKEDISMNSVPIQQETLVVRRKHQGCSVSFQLEKVLVTVGCTCVTPVIHHVQ
notes: also called hIL-17F; hIL-17FF

Tests used:
[1] = target: T2, human IL-17A (IL-17AA homodimer) (human, UniProt Q16552 20-155, limits assumed); test: cell-based or functional assay
T2 sequence (Q16552 20-155 limits assumed): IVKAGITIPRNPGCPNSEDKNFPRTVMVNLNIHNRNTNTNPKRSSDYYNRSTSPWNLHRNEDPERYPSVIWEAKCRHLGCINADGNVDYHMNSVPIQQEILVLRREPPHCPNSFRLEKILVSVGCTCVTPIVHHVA

[2] = target: B15; test: cell-based or functional assay
[3] = target: T3, human TNFα (human, UniProt P01375 77-233); test: cell-based or functional assay
T3 sequence (P01375 77-233 limits assumed): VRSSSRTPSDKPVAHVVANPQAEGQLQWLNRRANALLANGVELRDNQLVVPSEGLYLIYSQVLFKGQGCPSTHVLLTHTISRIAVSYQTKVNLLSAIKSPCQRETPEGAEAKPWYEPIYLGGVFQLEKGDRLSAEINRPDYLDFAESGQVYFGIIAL

[4] = target: T2, human IL-17A (IL-17AA homodimer); test: ELISA, cytokine coated on plate, binder titrated, HRP secondary antibody
[5] = target: B15; test: as above
[6] = target: T3, human TNFα; test: as above
[7] = target: T2, human IL-17A (IL-17AA homodimer); test: ELISA
[8] = target: B15; test: ELISA
[9] = target: T3, human TNFα; test: ELISA
[10] = target: T1, wild-type IL-17RC (wtIL-17RC); test: binding affinity analysis of Table 12 (Octet BLI as described in Example 5)

B1 was tested. Which “IC50 (ng/mL) of hIL-17A, SEAP reporter assay in HEK-Blue IL-17 cells” value (shortened to “IC50 (ng/mL) of hIL-17A”) [1] did it give?
The value was 20.9 ng/mL.

And the “IC50 (ng/mL) of hIL-17F, SEAP reporter assay in HEK-Blue IL-17 cells” value (“IC50 (ng/mL) of hIL-17F” for short) [2]?
The value was 1150 ng/mL.

What about the “IC50 (ng/mL) of hTNFα, SEAP reporter assay in HEK-Blue TNFα cells” value (“IC50 (ng/mL) of hTNFα” below) [3] of the same binder?
The value was 14.9 ng/mL.

And the EC50 [4]?
The EC50 was 0.00924 µg/mL.

And the EC50 [5]?
Its EC50 is 0.13 µg/mL.

And the EC50 [6]?
Its EC50 is 0.0438 µg/mL.

What about the EC50 [7] of the same binder?
The EC50 was 0.0752 µg/mL.

And the EC50 [8]?
The EC50 was 0.0702 µg/mL.

What about the EC50 [9] of the same binder?
The EC50 was 0.068 µg/mL.

Which results are given for B2?
IC50 (ng/mL) of hIL-17A, SEAP reporter assay in HEK-Blue IL-17 cells [1]: 23.7 ng/mL; IC50 (ng/mL) of hIL-17F, SEAP reporter assay in HEK-Blue IL-17 cells [2]: 1030 ng/mL

How did the EC50 [4] turn out when B3 was run?
Its EC50 is 0.0106 µg/mL.

How did the “IC50 (ng/mL) of hIL-17A” value [1] turn out when B4 was run?
The value was 24.7 ng/mL.

What about the “IC50 (ng/mL) of hIL-17F” value [2] of the same binder?
Its value is 2230 ng/mL.

And the “IC50 (ng/mL) of hTNFα” value [3]?
The value was 249 ng/mL.

And the EC50 [4]?
The EC50 was 0.0103 µg/mL.

And the EC50 [6]?
The EC50 was 0.0233 µg/mL.

With B5 as the binder, how does the “IC50 (ng/mL) of hIL-17A” value [1] read?
Its value is 15.3 ng/mL.

What about the “IC50 (ng/mL) of hIL-17F” value [2] of the same binder?
Its value is 1240 ng/mL.

And the EC50 [5]?
Its EC50 is 0.0853 µg/mL.

And the EC50 [6]?
Its EC50 is 0.0627 µg/mL.

What does the source list for B6?
EC50 [7]: 0.0607 µg/mL; EC50 [8]: 0.0455 µg/mL; EC50 [9]: 0.0873 µg/mL

With B7 as the binder, how does the “IC50 (ng/mL) of hIL-17A” value [1] read?
The value was 26.9 ng/mL.

What about the “IC50 (ng/mL) of hTNFα” value [3] of the same binder?
Its value is 138 ng/mL.

And the EC50 [4]?
The EC50 was 0.0092 µg/mL.

Which results are given for B8?
IC50 (ng/mL) of hIL-17A, SEAP reporter assay in HEK-Blue IL-17 cells [1]: 20.5 ng/mL; IC50 (ng/mL) of hIL-17F, SEAP reporter assay in HEK-Blue IL-17 cells [2]: 1260 ng/mL; EC50 [6]: 0.0406 µg/mL

For B9, which EC50 [7] is on record?
Its EC50 is 0.0543 µg/mL.

And the EC50 [8]?
The EC50 was 0.0621 µg/mL.

What about the EC50 [9] of the same binder?
The EC50 was 0.0443 µg/mL.

With B10 as the binder, how does the “IC50 (ng/mL) of hIL-17A” value [1] read?
The value was 24.4 ng/mL.

What about the “IC50 (ng/mL) of hIL-17F” value [2] of the same binder?
Its value is 2740 ng/mL.

What about the “IC50 (ng/mL) of hTNFα” value [3] of the same binder?
Its value is 354 ng/mL.

And the EC50 [4]?
The EC50 was 0.00706 µg/mL.

And the EC50 [5]?
Its EC50 is 0.183 µg/mL.

What about the EC50 [6] of the same binder?
The EC50 was 2.04 µg/mL.

How did the EC50 [4] turn out when B11 was run?
The EC50 was 0.0106 µg/mL.

Which EC50 [4] does the source give for B12 here?
The EC50 was 0.0087 µg/mL.

With B13 as the binder, how does the “IC50 (ng/mL) of hIL-17A” value [1] read?
The value was 19.9 ng/mL.

What about the “IC50 (ng/mL) of hTNFα” value [3] of the same binder?
The value was 116 ng/mL.

And the EC50 [4]?
Its EC50 is 0.00841 µg/mL.

How did the EC50 [4] turn out when B14 was run?
Its EC50 is 0.0126 µg/mL.

B15 was tested. Which Kd [10] did it give?
The Kd was 4 nM.
